Measured values: PMC7481934 (Nature, 2020)
One block for each binder: values may come before it.

B3: GST-Lge1-StrepII (natural protein, S. cerevisiae, UniProt Q02796 1-332, looked up)
chain: MSGYTGNNYSRYSSTPPRQRGGYHHARRSRGGAGGSYYRGGNASYGARYNSDYEQPPQEGDLRQTGAYYRNGYTDTRPYYSANSRHYQAQPSPRYNNGTNSYHLPQRGNSQDTNGRTTSASQEDNDEKRVKSRYRNMQADHPRQQPMSVGSTSSRNGSSGNSSTSSTSNGLPPPPSVSSITNNRSYHSSAYPYSSSHTYNNYHHRETPPPPPSNGYYAKGYPVHVPENRSNSDGSSSSVVKKKRILDMKDSPFIYLTDFDKNVKKTNNTESECEKAREVFKESDSIDSALEELNLKINSNELELRLLNNQCDKHALNIQLTQEKLDSLLLMQ

Columns and labels:
GST-Lge1-StrepII = target: B3; test: pull-down
6His-Lge1-StrepII = target: T1, 6His-Lge1-StrepII (S. cerevisiae, UniProt Q02796 1-332); test: recruitment to reconstituted condensates
T1 sequence (looked up): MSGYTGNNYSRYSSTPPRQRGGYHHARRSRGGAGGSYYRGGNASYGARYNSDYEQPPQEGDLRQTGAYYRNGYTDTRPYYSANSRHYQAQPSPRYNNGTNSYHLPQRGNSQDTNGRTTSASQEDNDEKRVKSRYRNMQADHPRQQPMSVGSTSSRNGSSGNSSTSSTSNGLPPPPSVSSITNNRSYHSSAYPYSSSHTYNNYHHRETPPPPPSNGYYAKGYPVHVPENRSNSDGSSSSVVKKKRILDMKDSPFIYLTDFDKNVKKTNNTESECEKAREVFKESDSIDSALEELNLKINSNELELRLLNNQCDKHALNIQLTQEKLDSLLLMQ

StrepII-Bre1 = target: T2, StrepII-Bre1 (S. cerevisiae, UniProt Q07457 1-700); test: pull-down
T2 sequence (looked up): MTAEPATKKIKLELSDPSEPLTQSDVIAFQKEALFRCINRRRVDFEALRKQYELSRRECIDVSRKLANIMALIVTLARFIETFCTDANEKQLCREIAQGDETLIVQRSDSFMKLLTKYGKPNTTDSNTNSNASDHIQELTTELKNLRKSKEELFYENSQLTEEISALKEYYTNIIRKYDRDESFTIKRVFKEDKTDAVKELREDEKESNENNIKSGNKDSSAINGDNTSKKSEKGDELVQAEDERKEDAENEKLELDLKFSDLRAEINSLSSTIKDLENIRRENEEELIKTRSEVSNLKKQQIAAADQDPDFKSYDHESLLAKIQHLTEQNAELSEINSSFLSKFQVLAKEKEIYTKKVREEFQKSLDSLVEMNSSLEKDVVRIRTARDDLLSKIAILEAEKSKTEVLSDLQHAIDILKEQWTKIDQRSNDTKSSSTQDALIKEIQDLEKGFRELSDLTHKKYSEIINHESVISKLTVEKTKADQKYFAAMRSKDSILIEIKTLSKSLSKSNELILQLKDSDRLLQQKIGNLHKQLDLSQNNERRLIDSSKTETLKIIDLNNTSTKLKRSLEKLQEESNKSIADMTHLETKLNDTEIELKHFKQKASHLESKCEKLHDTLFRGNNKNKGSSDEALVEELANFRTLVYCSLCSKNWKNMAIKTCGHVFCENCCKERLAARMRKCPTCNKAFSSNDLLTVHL

co-sedimentation = target: the molecule itself; test: co-sedimentation
StrepII-mGFP-Bre1 = target: T3, StrepII-mGFP-Bre1 (S. cerevisiae, UniProt Q07457 1-700); test: recruitment to reconstituted condensates
T3 sequence (looked up): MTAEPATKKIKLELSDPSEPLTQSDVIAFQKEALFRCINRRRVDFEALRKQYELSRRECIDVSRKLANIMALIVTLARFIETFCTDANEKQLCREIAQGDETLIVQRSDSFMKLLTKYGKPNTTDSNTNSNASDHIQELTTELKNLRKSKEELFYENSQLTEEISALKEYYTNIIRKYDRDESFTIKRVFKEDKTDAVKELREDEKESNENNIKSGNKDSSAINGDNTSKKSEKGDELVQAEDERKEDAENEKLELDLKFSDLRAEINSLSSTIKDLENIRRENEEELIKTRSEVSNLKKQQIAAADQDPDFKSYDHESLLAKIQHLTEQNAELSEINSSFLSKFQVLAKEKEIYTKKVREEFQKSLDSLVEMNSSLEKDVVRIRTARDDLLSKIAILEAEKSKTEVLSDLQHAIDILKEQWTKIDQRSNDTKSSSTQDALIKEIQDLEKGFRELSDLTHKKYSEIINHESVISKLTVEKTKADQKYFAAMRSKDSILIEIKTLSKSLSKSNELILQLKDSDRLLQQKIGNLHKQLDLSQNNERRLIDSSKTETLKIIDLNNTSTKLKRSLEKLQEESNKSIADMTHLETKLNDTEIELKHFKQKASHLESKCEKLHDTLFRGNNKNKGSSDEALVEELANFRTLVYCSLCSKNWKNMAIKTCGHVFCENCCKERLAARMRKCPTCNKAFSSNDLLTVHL

binding result (GST-Lge1-StrepII): binds
B1: StrepII-Bre1 Lge1 Binding Domain (residues 308-632) (domain or fragment, S. cerevisiae, UniProt Q07457 308-632, looked up)
chain: QDPDFKSYDHESLLAKIQHLTEQNAELSEINSSFLSKFQVLAKEKEIYTKKVREEFQKSLDSLVEMNSSLEKDVVRIRTARDDLLSKIAILEAEKSKTEVLSDLQHAIDILKEQWTKIDQRSNDTKSSSTQDALIKEIQDLEKGFRELSDLTHKKYSEIINHESVISKLTVEKTKADQKYFAAMRSKDSILIEIKTLSKSLSKSNELILQLKDSDRLLQQKIGNLHKQLDLSQNNERRLIDSSKTETLKIIDLNNTSTKLKRSLEKLQEESNKSIADMTHLETKLNDTEIELKHFKQKASHLESKCEKLHDTLFRGNNKNKGSSD

binding result (6His-Lge1-StrepII): binds
B2: StrepII-mGFP-Bre1 LBD (domain or fragment, S. cerevisiae, UniProt Q07457 308-632, looked up)
chain: QDPDFKSYDHESLLAKIQHLTEQNAELSEINSSFLSKFQVLAKEKEIYTKKVREEFQKSLDSLVEMNSSLEKDVVRIRTARDDLLSKIAILEAEKSKTEVLSDLQHAIDILKEQWTKIDQRSNDTKSSSTQDALIKEIQDLEKGFRELSDLTHKKYSEIINHESVISKLTVEKTKADQKYFAAMRSKDSILIEIKTLSKSLSKSNELILQLKDSDRLLQQKIGNLHKQLDLSQNNERRLIDSSKTETLKIIDLNNTSTKLKRSLEKLQEESNKSIADMTHLETKLNDTEIELKHFKQKASHLESKCEKLHDTLFRGNNKNKGSSD

Binder: B3
binding result (StrepII-Bre1): binds

B4: GST-Lge1 IDR-StrepII (domain or fragment, S. cerevisiae, UniProt Q02796 1-242, looked up)
chain: MSGYTGNNYSRYSSTPPRQRGGYHHARRSRGGAGGSYYRGGNASYGARYNSDYEQPPQEGDLRQTGAYYRNGYTDTRPYYSANSRHYQAQPSPRYNNGTNSYHLPQRGNSQDTNGRTTSASQEDNDEKRVKSRYRNMQADHPRQQPMSVGSTSSRNGSSGNSSTSSTSNGLPPPPSVSSITNNRSYHSSAYPYSSSHTYNNYHHRETPPPPPSNGYYAKGYPVHVPENRSNSDGSSSSVVKK
binding result (co-sedimentation): binds

binding result (StrepII-mGFP-Bre1): binds
B5: Pacific Blue-labelled 6His-TEV-Rad6 (enzyme, S. cerevisiae, UniProt P06104 1-172, looked up)
chain: MSTPARRRLMRDFKRMKEDAPPGVSASPLPDNVMVWNAMIIGPADTPYEDGTFRLLLEFDEEYPNKPPHVKFLSEMFHPNVYANGEICLDILQNRWTPTYDVASILTSIQSLFNDPNPASPANVEAATLFKDHKSQYVKRVKETVEKSWEDDMDDMDDDDDDDDDDDDDEAD
modifications: Pacific Blue C5-Maleimide label

binding result (StrepII-Bre1): binds
B6: GST-Lge1 CC-StrepII (domain or fragment, S. cerevisiae, UniProt Q02796 243-332, looked up)
chain: KRILDMKDSPFIYLTDFDKNVKKTNNTESECEKAREVFKESDSIDSALEELNLKINSNELELRLLNNQCDKHALNIQLTQEKLDSLLLMQ
